The domain aggregation screens of Martell et al. (2025)

Experiment: soluble fraction after stress (log2 fold change); higher = more stays soluble; pooled small domains, quantitative proteomics
Conditions: stress: 50 degC
How it was run: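 Pooled custom libraries of small protein domains were each held under stress at 50°C. The read-out, high-throughput quantitative proteomics, tracked how much of each protein stayed soluble. This is reported as a base-two log fold change used to indicate aggregation propensity. Higher values mean more protein remains in solution.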

Sequence | soluble fraction (log2)
HMTILKEGMSGPEVERLQDALKRHGFDPGRVDGQFGPGTEAAILAFQKSEGLRADGVAGPKTQQALGLE | 0.131
HMGYSSKISELLTKYNMNASELAQKVGVPPTTIYSIIKRDSKKADIEVLIKIAKLFNVPVEYF | -0.99
HMDEIELLLQDAIQKLPEKQRMVFTLRYYDNLPYEEISKILDMSVSTLKTNYHYAKSKIEQYILDHS | -0.607
HMADEIQLVVQVNGKLRGRIMVAPDASREEIEKTALADADVSRFLGDTPVKKVIIVPKRLVNIVAPAPK | -0.0114
HMQNKRQEQLLALLAERRDYMTSRQLAEILQVSDRTIRSDVEAINRRSSPPPIESNVRQGYRLNPEA | 0.0852
HMDRRIDIANAVKTALGSLPERQKTAIVLVHYEGFSGAETAKLLGISVEAVESLLARARRNLRQTLGP | -0.455
HMNLSDIETWLRELSLEKYALAFSEAEIDFETLPELTEDDLKEVGLPVGPRRKVWGAIQLLRTTD | -1.42
HMGLSAALKARLREVINEMAKSGAQPKLREWALAEGIGNFAKPETPEAAEAVIAKAQELLAEA | 0.547
HMRSFGRLRRRDSGRWEAAYVGPDARLYRAPATFEAKDDAIAWLSAERRMIELDTWIKPHDRASR | -1.11
HMDSADADLLRRIEDLLSSRRSVIREARLADMLGVPRDQVARALDLLQERGVIGLTTDSGMKRIAFRRN | -0.0756
HMIHTYVETRKVGNNDGLIRVDNKYYRVPQHLVGMKVQIQIDEATISVLQGGVMVATLDKTADVFNPQA | -0.782
HMITDQQKEQLSSLLKQAEAALAKAAANDQVLAAHKDEAVELLKSTSATSADAADLINELTELLKPYQ | 0.352
HMIDLGKSRTWHSENGRAIEARVINISEEQQTVEMQRVDGLKFELSWNQLSKADQTLLAEAAKKTALVA | 0.0711
HMSSADIPFSRFIDDVEAQRVEKVTIDGVNVTGRYRSDGAAFKTIIPSQYDGLVPILRQNKVDITVKDA | 0.123
HMGYDDVIVINGKNETYGFPTKVEDDPVLSLVIKGDRSIDYAEERRLFYVAMTRTKNRVFFVAP | 0.0138
HMDIEFSDELRTFIDEWSKKEGGLVMMLHRIQNEYGFIPRTAAEKLSLISGIPLARIYGVITFYHFFKT | -0.461
HMDPVQLEVIKKLNLLNAQKPKDIYALRDVLSEMFPQSDIRLLLKELLDKGYIYWNGHEVIYSHEMF | -0.217
HMDYIGIQAAKEAALKDADISSEQAVFTMAELDNKNNIFYYQIMFTENGTEYRYDIDALTGVIIEKNHFF | -1.96
HMARTIINLPLRNSVDESYNTTVNILQANGFKEVSYNGETVWKKGTGLLTAMQYIKIEFTDTTLVVSGWVQ | ≥ 0.62
HMDDATDVPYQEFRTQVTSGQVEIAQFNNNTGKISFQSTSGEKFETSGPLELSSDDERLFLENIEDFKFFT | -0.0161
HMELADNFAKLILTARESKGWTQAQLGQRMAETINVIKSAESGKPPADSVIRKFEMILGIELM | -1.96
HMKEDNPIVLINLQAKEGEWVFKGTGLPYVGKYHQHKNGEYMIGIGVLNLNHELKPDEIIIPNPNK | -0.109
HMRYEESVTLGERLLNQSLVALKADNIDDALWERFLREEAGEKSRQEILSDIGLGKRLPVVVAKRLLAPS | 0.0281
HMLRRNQVQSQVIPRENGSYVVELQLRDDVDSILRLELTAATEAMARDLADRFRQDPEGVYTRLLSALY | -0.789
HMTPAPHESLTDREMEVLKLLAQGLSNQEIADKLFIGVKTVKYHITNIFSKLGVEDRTQAAIYAHKQGLA | 0.0163

Sequence | soluble fraction (log2)
HMEEEEITIHIIGEVKYPGIVILKTGQRIIDAIDAAGGETEEADLNKINLAQLLSDGDKIYVPSINDN | -0.0785
HMLPADETEARVLNVLGSEPLHVDEIRNQADLPIEKISATLAMMELKGMVRQVGGMNYVAMR | 0.0898
HMKPDAAKREQLIDIALRLFSQQGIARTSLNAIAREAGVTPAMLHYYFNSREQLLDVMIEERFL | -3.09
HMQPGDRVDALIVGVSGEHVFLDVGGKSEGVMAAAELRNEAGELSAAEGDRVQVYLLSNRNGELIFTA | 0.00616
HMNQYALTDREKNVLGLLVDGLSYKMIADKENISFHTVNAHVRKIYEKLHVHSLAEAVSKALKENL | -1.29
HMDEYILTLDEVKELLKSKDYDDLKNVLKWSNKFQKDTIIQTAISEKVSDANVINIIKEITGQDITSLIV | 0.0322
HMDTRKEREIALYEAALRLIASGVNPAAMKVQQIADEAGIGKGTVYEYFASKEEILHGMALH | -0.241
HMSVLSVASKNQAINPGQVVALLKDGIKLNDDGRVEILDNNNNIRYNEKGNLLSIEERVKEFLDANPHFRQ | -0.368
HMPKHFIDFSEGEVVSITDGPFKGFDGAISEIDNQKGKVKVMVSMFGRDTSVELDALQVKKV | -0.107
HMWSLLVILQLREGGQRFSQLQRAIPDISQRMLTQTLRKLERDGLVSRKVTPSTPPRVDYAITELGH | -1.04
HMATHGRRAVIELREKIVSGELPGGTRLFEVSLAETLDISRTPVREALSRLAEEGLLDRLPNGGFVVRR | -0.503
HMRVEEVGYGEFLQMAEERDLAEVQVTDTEIIFSDKDTPPNYYKTGRMDDPFLVDRLYSAGIRDFGE | -0.298
HMEKIDEDIMDVLKKKAEVSGISLGVLKSIYEKAVKQYKLGHEIGQVKEQYAMQKVNTHLLENK | 0.194
HMTAEVIYVDVGGEVNQPSVVELTDGSRVTDAIAAAGGLTEKADLTDINRAAFVSDGEKIFIPSQEE | -0.0513
HMLFSDSDLKSLLDKDISYVIEMYKAASKEQKRIISDMVAQKVMEKKYIDANILIQLGELTGINYMDL | -0.472
HMGNKDIEILFSEIVEMRNRIIHGFRITSKQGEQILATKTRKKDGNIQFEITKEYLLDFIKKNEELSDMLY | -2.23
HMAPKRIVLRFGKDISDKPIIYYLVKDYDLVINILKANVNPNKEGTLVLELSGENYDKGIEFLISQGVTVQ | -1.56
HMRSNIYTEEKLWTVLQDFFQENRYLTISLMRMKFGLSRHMAQKWIDHFIAKGLLVKDGTPRSPIYFLND | -2.3
HMKKMEEEFALFNAWVDRRLGIPLAAYKENQMQRRILTIMENSGAKTLREYQQLIEGDEGVRAAFLAHIT | -1.1
HMIAAVIAQVANTNERIILEKRYLSFKSWDEIAVEMRISPRWAYTLHERALKAVDQVLSKQNNE | -4.07
HMDKIEVVEVDMSKPYEDMTVTELQNVILDKLASNGPVTNQMKKDVSENIYHDSLVNWAKSF | 0.0697
HMEEDPIIIAQRFLNIFRQLHIFSEEKKESFNKMLLEQPAEIRGALRSLPGGGLLQDYIDDLESKA | -0.151
HMGVLGVDALAAAAEVSVDTVRYYQHLGLLEPPRREGRRAVYGPSHLARMGEIRRLAAAGFTLDQIRQLAE | -2.1
HMSSKSLAALSPQEYRLLPLVAEGKTNKEIASALALSDKTVKNYLANIFSKLGITRRTQAATLYARAL | -0.167
HMEFDYIVKVPDVRNKKIEDAGKILIDLGLKYTTESDYITQDLKVIDQFPLPGTEVSKGSIIDIYLEEDFK | 0.0944

Sequence | soluble fraction (log2)
HMLKLEPYTINEINSLQELYDLGNVRALETLISIYKDKNQVYDTRFYVLDILSKYDNPLIQEALEESITN | -1.78
HMGKKIVERRNTILNMVNKYGTLDFPQLRDAFPDVSDVTLRKDLQYLDSTKQAIRTHGGIKSI | 0.0534
HMELNILELKSKERKISLEDHLYIKSFNFDNETNEYFYRLAFNSSKDLKNFKATINNDKTISIINFEI | -3.16
HMVINKRELNVLSIYSRGSEKRAIILFPTGQTKLVKVGDTLNGGRVAAIGTTEIRYIKGGNNLVLKIPQ | -2.41
HMVKSSVTEVISMINALPVTVKPEDKADIISARMAYDTLTEDEKALVTNYEILTAAETRFNELIATT | 0.205
HMNEKLRNYIDTLFEHAPTTVRAVELKEEMFQNLTDKYNDLIAQGKSEEAAFNIAVASIGDVDSLIAGLS | 0.219
HMDFQTDVFISRFAELKKESGETNKDLQDVFELSLSALINYQTGKRIPDIAFLHKLAQHFGVSADYLLGLS | -0.549
HMAMYSREKLKKLREDRGLTQYELAKIAGISVVTLNKIESSDSAKPFVKTLNKIAQALGVGIDELS | -0.127
HMPVGVPGVVYNTDSLNVRKGAGTNYDIVSKLKRGSVIEVLEQTAVDGTVWGRIAEGWVNMEYVSL | -0.43
HMGHTKLVVDIVEELKLEQGALLPILHAIQDELGYVPTKSVPFIADSLNLSRAEVHGVISFYHYFR | 0.15
HMKNELNSKLIISIKEALPPQIKVATYLMDLLSLGREAVYRRIRGDVSFDLEELSIISKALNISIDDVL | -4.15
HMANLNFDMSQIVASRYQEKAAELGVTAPSLARTDYNTQEQATYEFVAREIIADYYDDRVAPFNDLIPE | -0.223
HMTPQEQWNNAYLLAKDYYDANGNLDIDEKYKTKDGFELGSWLTTQRNVYKRGKLSPEKTKKLEEIGISF | 0.128
HMIDSEEVMETIQDLGYSPVFDVKEKFYKIKEEQIGKITLEVHIILRYGMVDLVWIVRENGELLLG | 0.138
HMQNESGLFTMSDLWEAGLMGSENASRKRAAVGAFLGIGFGNGKQFLKRLNHFGVTKEEWESALEQLGE | -0.684
HMIDNKIIRSLRQKRNMTLEELAKKANISVSYLSEIELGKKQPSLETINKLSQALNISREGLI | -0.0409
HMLQNLGFKPDLEIRHFPGIVLPDIHRSKKTISLLYTLLAGDIKKLPENEINYKDSKIISSYLWTLLRYH | 0.0237
HMRREKVLIKLAENLASKVLRTKKSIELEPMTPYERKVIHTTIENISGVKSWSEGENLQRHLIVALDE | -1.3
HMESSREVSFSEFMKQIDSGRVSSVKLDGETIYVRNSDGTSYKVIQPLGTDLIGVLRKSDIDVQAIKQ | -0.003
HMGMNSGQADFRGISLALSVDAEAEAQRLFTALADGGQVQMPLSKTFFSPAFGMVADRFGVGWMVVTN | 0.247
HMVPLSMLTEGQIFRGQVLDITSQGIKIQLNPEQILFARLGEQVELNIGQQMAFQVRENKGDQLIIHPMQN | 0.0382
HMIQQFTYAFAKDKGVVVLPGRDVLTLGMRAGADPLVLLEARRALGSSFELEPLDRDTYERTLADVFTADA | -0.695
HMSMDYYSTLGVSKTASASDIKKAYRKLAMANHPDKGGDSAKFAKITEAYDVLKDPQKRNNYDQFGTA | 0.162
HMDDSVVFSLNAKGIRLTGAGKYGEAIALFDKAIAAKPGLSGLYFNRAEARRLSGDLPGARSDLEQALAI | -0.453
HMTGSLLVEVQGRPDADRLLGQALVDAGLTARPAGGALIEVEVRDETTPDVVRDLTVDLGLGLVRMQERH | -0.702
